The text below walks through data of paper doi:10.1101/720938 (bioRxiv, 2019).

This data set concerns the molecule itself. Put plainly: cryo-EM structure.

B1: PilA4, major pilin of Thermus thermophilus HB27 (subunit of the wide type IV pilus) (natural protein, T. thermophilus HB27, UniProt Q72JC0 7-131, looked up)
chain: FTLIELLIVIAIIAILAAVLIPNLLAARKRANDTVVTAYLNDAVKFQEMYQIDNNSYTSNQAALISLGLKSTPANVTFSIVSASANSYCMIAGHSGGTVWFAATPDKGVYKTNTAVTSSQPESCP
modifications: extra densities at Ser59, Ser66 and Ser71, suggested to be O-linked glycosylation; disulphide bond Cys89-Cys124
B1: the binding result is given as “binds”.

B2: PilA5 (TT_C1836), pilin of Thermus thermophilus HB27 (subunit of the narrow type IV pilus) (natural protein, T. thermophilus HB27, UniProt Q72GL2 6-116, looked up)
chain: FTLIELAIVIVIIGILVAIAVPRFVDLTDQANQANVDATAAAVRSAYAIATVQAKGIPTCDQVFANPEGGSTSGSTWTSSDNSTTVSCNASADTFTISRGGKTRTLNLTVN
modifications: extra density at Ser73, suggested to be O-linked glycosylation; disulphide bond Cys60-Cys88
Regarding B2, the binding result is “binds”.
